Target: C1q (Fitzgerald, Cat. No. 32R-AC049) (UniProt P02745)
Test: ForteBio, biotinylated antibody on SA chip, C1q from 200 nM

Chain of C1q (Fitzgerald, Cat. No. 32R-AC049) (P02745 23-245 limits assumed, chain 1 of 3): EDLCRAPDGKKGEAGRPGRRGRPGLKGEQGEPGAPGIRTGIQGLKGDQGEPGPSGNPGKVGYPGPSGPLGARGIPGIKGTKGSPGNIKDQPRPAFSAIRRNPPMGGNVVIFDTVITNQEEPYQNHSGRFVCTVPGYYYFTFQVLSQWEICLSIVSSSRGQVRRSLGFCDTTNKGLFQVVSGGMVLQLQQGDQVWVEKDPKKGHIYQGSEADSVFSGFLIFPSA
Chain of C1q (Fitzgerald, Cat. No. 32R-AC049) (P02746 28-253 limits assumed, chain 2 of 3, further chain): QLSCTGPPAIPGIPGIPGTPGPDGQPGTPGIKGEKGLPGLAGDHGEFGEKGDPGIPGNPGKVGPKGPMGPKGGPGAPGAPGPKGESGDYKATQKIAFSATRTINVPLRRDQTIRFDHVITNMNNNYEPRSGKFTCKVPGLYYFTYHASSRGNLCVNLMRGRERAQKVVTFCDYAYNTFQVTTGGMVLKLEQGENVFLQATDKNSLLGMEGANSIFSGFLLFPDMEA
Chain of C1q (Fitzgerald, Cat. No. 32R-AC049) (P02747 29-245 limits assumed, chain 3 of 3, further chain): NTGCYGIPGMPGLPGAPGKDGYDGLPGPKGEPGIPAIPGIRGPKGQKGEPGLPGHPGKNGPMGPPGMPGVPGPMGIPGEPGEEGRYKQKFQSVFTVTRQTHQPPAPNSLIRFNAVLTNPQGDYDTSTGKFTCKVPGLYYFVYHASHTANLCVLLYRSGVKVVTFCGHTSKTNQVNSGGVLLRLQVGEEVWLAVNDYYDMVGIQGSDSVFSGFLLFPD

Kd: 1.3 nM
koff: 0.00176 s⁻¹
kon: 1.36e+06 M⁻¹ s⁻¹
Substance: Tecentriq® (Atezolizumab, purchased from Roche) (antibody)

Source: US20200010570A1
